Changes are numbered by the printed parent chain.
Tests used:
[1] = molecular target: T1, Rv0792c G80D G80D (Mycobacterium tuberculosis) (UniProt O86331); test: ALISA (plate-immobilized protein)
T1 sequence: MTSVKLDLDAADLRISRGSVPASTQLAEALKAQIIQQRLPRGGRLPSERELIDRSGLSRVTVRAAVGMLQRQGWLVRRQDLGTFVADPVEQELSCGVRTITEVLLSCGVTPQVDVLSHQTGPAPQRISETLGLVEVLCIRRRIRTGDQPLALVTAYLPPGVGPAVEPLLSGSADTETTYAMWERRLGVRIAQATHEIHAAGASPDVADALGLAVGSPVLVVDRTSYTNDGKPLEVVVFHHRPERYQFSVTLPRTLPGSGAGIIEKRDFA

[2] = molecular target: T2, Rv0792c R49A R49A (Mycobacterium tuberculosis) (UniProt O86331); test: ALISA (plate-immobilized protein)
T2 sequence: T1 sequence with R49A, D80G

## TCTAGTCATTCGTCATAATCCCATCTGTTTCTTCCTCCTTCCGT [Rv0792c_2 aptamer (also Rv0729c_2)]
[1]
  Kd: 120 nM
[2]
  Kd: 74 nM
